Article PMC5817203, “Characterization of feedback-resistant mevalonate kinases from the methanogenic archaeons Methanosaeta concilii and Methanocella paludicola” (Microbiology, 2017)
One block for each molecule: values may come before it.

Assays:
[1] = biological target: mevalonate kinase from Methanosaeta concilii GP6 (Methanosaeta concilii GP6); test: SEC; gel filtration of the purified enzyme; apparent mass compared with the mass calculated from the sequence; column and buffer not told
[2] = biological target: the molecule itself; test: as above

stoichiometry N [1]: 4
Molecule: mevalonate kinase from Methanosaeta concilii GP6 (enzyme)

B1: mevalonate kinase from Methanocella paludicola SANAE (enzyme, UniProt D1YZ39 1-299, looked up)
chain: MTMCSAPGKVFLFGEHAVVYGKRAIACAIDLRTTVEVSRKSRGVHIHSAFKDEPDKNLYIKTAVKRMQKCADIRNVNIAVSSRIPVASGLGSSAAVTVATIGALNEEFSAGLSKKDIAYMAYQTELEVQGAASPTDTFVSTMGGTVVVPDMRTLPPITCGIVVGHTGISKSTSRMVSRVRTLKEKYPDVIDGIMDSIGDISARGEDLIKQNDYRSIGELMNVNQGLLDALGITIPELSLQIYAARQHGAYGAKITGAGGGGCMVAICDDKNCKEIATAIGRSYGDSFISKPTAEGIFIQ
notes: codon-optimised synthetic gene, coding part cloned NdeI/EcoRI into pET-28b(+); No tag removal is described; also called MVK^mpd; mpd; source: E. coli BL21 (DE3), pET-28b(+), purified (His-Trap HP, dialysis)
stoichiometry N [2]: 2
